In paper PMC10112965, “Characterization of the nuclear import of the human CHD4–NuRD complex” (Journal of Cell Science, 2023):

B1: CHD4-C-Flag, C-terminal Flag-tagged recombinant human CHD4 wild-type (enzyme, UniProt Q14839 1-1912, looked up)
chain: MASGLGSPSPCSAGSEEEDMDALLNNSLPPPHPENEEDPEEDLSETETPKLKKKKKPKKPRDPKIPKSKRQKKERMLLCRQLGDSSGEGPEFVEEEEEVALRSDSEGSDYTPGKKKKKKLGPKKEKKSKSKRKEEEEEEDDDDDSKEPKSSAQLLEDWGMEDIDHVFSEEDYRTLTNYKAFSQFVRPLIAAKNPKIAVSKMMMVLGAKWREFSTNNPFKGSSGASVAAAAAAAVAVVESMVTATEVAPPPPPVEVPIRKAKTKEGKGPNARRKPKGSPRVPDAKKPKPKKVAPLKIKLGGFGSKRKRSSSEDDDLDVESDFDDASINSYSVSDGSTSRSSRSRKKLRTTKKKKKGEEEVTAVDGYETDHQDYCEVCQQGGEIILCDTCPRAYHMVCLDPDMEKAPEGKWSCPHCEKEGIQWEAKEDNSEGEEILEEVGGDLEEEDDHHMEFCRVCKDGGELLCCDTCPSSYHIHCLNPPLPEIPNGEWLCPRCTCPALKGKVQKILIWKWGQPPSPTPVPRPPDADPNTPSPKPLEGRPERQFFVKWQGMSYWHCSWVSELQLELHCQVMFRNYQRKNDMDEPPSGDFGGDEEKSRKRKNKDPKFAEMEERFYRYGIKPEWMMIHRILNHSVDKKGHVHYLIKWRDLPYDQASWESEDVEIQDYDLFKQSYWNHRELMRGEEGRPGKKLKKVKLRKLERPPETPTVDPTVKYERQPEYLDATGGTLHPYQMEGLNWLRFSWAQGTDTILADEMGLGKTVQTAVFLYSLYKEGHSKGPFLVSAPLSTIINWEREFEMWAPDMYVVTYVGDKDSRAIIRENEFSFEDNAIRGGKKASRMKKEASVKFHVLLTSYELITIDMAILGSIDWACLIVDEAHRLKNNQSKFFRVLNGYSLQHKLLLTGTPLQNNLEELFHLLNFLTPERFHNLEGFLEEFADIAKEDQIKKLHDMLGPHMLRRLKADVFKNMPSKTELIVRVELSPMQKKYYKYILTRNFEALNARGGGNQVSLLNVVMDLKKCCNHPYLFPVAAMEAPKMPNGMYDGSALIRASGKLLLLQKMLKNLKEGGHRVLIFSQMTKMLDLLEDFLEHEGYKYERIDGGITGNMRQEAIDRFNAPGAQQFCFLLSTRAGGLGINLATADTVIIYDSDWNPHNDIQAFSRAHRIGQNKKVMIYRFVTRASVEERITQVAKKKMMLTHLVVRPGLGSKTGSMSKQELDDILKFGTEELFKDEATDGGGDNKEGEDSSVIHYDDKAIERLLDRNQDETEDTELQGMNEYLSSFKVAQYVVREEEMGEEEEVEREIIKQEESVDPDYWEKLLRHHYEQQQEDLARNLGKGKRIRKQVNYNDGSQEDRDWQDDQSDNQSDYSVASEEGDEDFDERSEAPRRPSRKGLRNDKDKPLPPLLARVGGNIEVLGFNARQRKAFLNAIMRYGMPPQDAFTTQWLVRDLRGKSEKEFKAYVSLFMRHLCEPGADGAETFADGVPREGLSRQHVLTRIGVMSLIRKKVQEFEHVNGRWSMPELAEVEENKKMSQPGSPSPKTPTPSTPGDTQPNTPAPVPPAEDGIKIEENSLKEEESIEGEKEVKSTAPETAIECTQAPAPASEDEKVVVEPPEGEEKVEKAEVKERTEEPMETEPKGAADVEKVEEKSAIDLTPIVVEDKEEKKEEEEKKEVMLQNGETPKDLNDEKQKKNIKQRFMFNIADGGFTELHSLWQNEERAATVTKKTYEIWHRRHDYWLLAGIINHGYARWQDIQNDPRYAILNEPFKGEMNRGNFLEIKNKFLARRFKLLEQALVIEEQLRRAAYLNMSEDPSHPSMALNTRFAEVECLAESHQHLSKESMAGNKPANAVLHKVLKQLEELLSDMKADVTRLPATIARIPPVAVRLQMSERNILSRLANRAPEPTPQQVAQQQ
notes: human CHD4, chromatin remodeling ATPase of NuRD, UniProt Q14839, 1912 aa; Construct (pDFB6 C-Flag) is described in Hoffmeister et al., 2017; also called hCHD4 wild-type; C-Flag hCHD4; not shown: Flag, C-terminal, kept
B2: CHD4-C-Flag Δ aa 217–360 (enzyme, human, UniProt Q14839 1-1912, looked up)
chain: MASGLGSPSPCSAGSEEEDMDALLNNSLPPPHPENEEDPEEDLSETETPKLKKKKKPKKPRDPKIPKSKRQKKERMLLCRQLGDSSGEGPEFVEEEEEVALRSDSEGSDYTPGKKKKKKLGPKKEKKSKSKRKEEEEEEDDDDDSKEPKSSAQLLEDWGMEDIDHVFSEEDYRTLTNYKAFSQFVRPLIAAKNPKIAVSKMMMVLGAKWREFSTNNAVDGYETDHQDYCEVCQQGGEIILCDTCPRAYHMVCLDPDMEKAPEGKWSCPHCEKEGIQWEAKEDNSEGEEILEEVGGDLEEEDDHHMEFCRVCKDGGELLCCDTCPSSYHIHCLNPPLPEIPNGEWLCPRCTCPALKGKVQKILIWKWGQPPSPTPVPRPPDADPNTPSPKPLEGRPERQFFVKWQGMSYWHCSWVSELQLELHCQVMFRNYQRKNDMDEPPSGDFGGDEEKSRKRKNKDPKFAEMEERFYRYGIKPEWMMIHRILNHSVDKKGHVHYLIKWRDLPYDQASWESEDVEIQDYDLFKQSYWNHRELMRGEEGRPGKKLKKVKLRKLERPPETPTVDPTVKYERQPEYLDATGGTLHPYQMEGLNWLRFSWAQGTDTILADEMGLGKTVQTAVFLYSLYKEGHSKGPFLVSAPLSTIINWEREFEMWAPDMYVVTYVGDKDSRAIIRENEFSFEDNAIRGGKKASRMKKEASVKFHVLLTSYELITIDMAILGSIDWACLIVDEAHRLKNNQSKFFRVLNGYSLQHKLLLTGTPLQNNLEELFHLLNFLTPERFHNLEGFLEEFADIAKEDQIKKLHDMLGPHMLRRLKADVFKNMPSKTELIVRVELSPMQKKYYKYILTRNFEALNARGGGNQVSLLNVVMDLKKCCNHPYLFPVAAMEAPKMPNGMYDGSALIRASGKLLLLQKMLKNLKEGGHRVLIFSQMTKMLDLLEDFLEHEGYKYERIDGGITGNMRQEAIDRFNAPGAQQFCFLLSTRAGGLGINLATADTVIIYDSDWNPHNDIQAFSRAHRIGQNKKVMIYRFVTRASVEERITQVAKKKMMLTHLVVRPGLGSKTGSMSKQELDDILKFGTEELFKDEATDGGGDNKEGEDSSVIHYDDKAIERLLDRNQDETEDTELQGMNEYLSSFKVAQYVVREEEMGEEEEVEREIIKQEESVDPDYWEKLLRHHYEQQQEDLARNLGKGKRIRKQVNYNDGSQEDRDWQDDQSDNQSDYSVASEEGDEDFDERSEAPRRPSRKGLRNDKDKPLPPLLARVGGNIEVLGFNARQRKAFLNAIMRYGMPPQDAFTTQWLVRDLRGKSEKEFKAYVSLFMRHLCEPGADGAETFADGVPREGLSRQHVLTRIGVMSLIRKKVQEFEHVNGRWSMPELAEVEENKKMSQPGSPSPKTPTPSTPGDTQPNTPAPVPPAEDGIKIEENSLKEEESIEGEKEVKSTAPETAIECTQAPAPASEDEKVVVEPPEGEEKVEKAEVKERTEEPMETEPKGAADVEKVEEKSAIDLTPIVVEDKEEKKEEEEKKEVMLQNGETPKDLNDEKQKKNIKQRFMFNIADGGFTELHSLWQNEERAATVTKKTYEIWHRRHDYWLLAGIINHGYARWQDIQNDPRYAILNEPFKGEMNRGNFLEIKNKFLARRFKLLEQALVIEEQLRRAAYLNMSEDPSHPSMALNTRFAEVECLAESHQHLSKESMAGNKPANAVLHKVLKQLEELLSDMKADVTRLPATIARIPPVAVRLQMSERNILSRLANRAPEPTPQQVAQQQ
notes: not shown: Flag, C-terminal, kept

Target: the molecule itself
Assay: native gel or EMSA; 1 µg protein on a 4–16% NativePAGE gel with G-250 additive, room temperature, 150 V for 2 h, stained with Coomassie and silver

Protein | stoichiometry N
B1 | ≥ 3
B2 | ≥ 3
